Measurements taken from the supplement of paper PMC6755084.

B1: F1*; the commonest letter at each place (parent)
chain: GAGACCGCAACTGAAAAGTTGTTATCACTTGTCGTAAGACACTTTGGATGGGTTGAAGTTCTGCACGTAGAAGCAAAAGGC

Variants of: B1
Assay: fraction ligated after 30 min (ligated reads / total reads); higher = more ligase activity
Details: with F1*sub RNA substrate (template-directed ligation), 42 °C
Method in brief: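 Oligo-pool templates underwent PCR amplification, T7 transcription and gel purification to yield ribozyme variants. Gel-separated ligated and unligated bands were converted to complementary DNA with barcoded primers and sequenced on a MiSeq, keeping core bases of quality ≥20. The ratio of ligated reads to total reads gave the fraction ligated for every variant.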

Variant | fraction ligated
T30A G31T | 0.831
T30A C33G | 0.84
T30A C33A | 0.847
T30A C33T | 0.849
T30G G31C T32C C33G G38C A39G C40G A41C | 0.797
T30C T44A | 0.807
T30C T44C | 0.803
T30C T44G | 0.812
G31A | 0.812
T29G T32A | 0.821
T29G T32C | 0.809
T29G T32G | 0.832
T30C G38T | 0.795
T30C G38A | 0.797
T30C G38C | 0.78
T30C A57C | 0.777
T30C A57G | 0.818
T30C A57T | 0.769
T30C T32C C33G G38C A39G A41G | 0.816
T29G T43G | 0.777
T29G T43C | 0.817
T29G T43A | 0.826
T30A A56C | 0.773
T30A A56T | 0.81

Variant | fraction ligated
T30A A56G | 0.797
T29G G46A | 0.832
T29G G46T | 0.805
T29G G46C | 0.786
T30C T32G C33G G38C A39C A41G | 0.831
T30G A56T | 0.797
T30G A56G | 0.757
T30G A56C | 0.786
T29G G38A | 0.844
T29G G38T | 0.855
T29G G38C | 0.844
G31A A41T | 0.81
G31A A41C | 0.74
G31A A41G | 0.797
T30C G31T | 0.823
T30C G31A | 0.779
T30C G31C | 0.789
T29G C42A | 0.813
T29G C42T | 0.83
T29G C42G | 0.839
T30A A36C | 0.854
T30A A36T | 0.823
T30A A36G | 0.832
T30A C42A | 0.815

Variant | fraction ligated
T30A C42T | 0.852
T30A C42G | 0.847
T30C C33T | 0.84
T30C C33G | 0.837
T30C C33A | 0.824
T30G T32C C33G G38C A39G A41C | 0.835
T29G A41G | 0.815
T29G A41T | 0.833
T29G A41C | 0.83
T30A T32A | 0.843
T30A T32C | 0.768
T30A T32G | 0.842
T30A G47A | 0.793
T30A G47C | 0.128
T30A G47T | 0.373
T30A G50C | 0.111
T30A G50T | 0.57
T30A G50A | 0.22
T30G G31A | 0.853
T30G G31C | 0.845
T30G G31T | 0.853
T29C T44G | 0.848
T30G G46A | 0.791
T30G G46C | 0.776

Variant | fraction ligated
T30G G46T | 0.785
T29G C40G | 0.83
T29G C40A | 0.84
T29G C40T | 0.809
T30C G31C T32C A39G C40G A41G | 0.867
T29G A57C | 0.765
T29G A57T | 0.811
T29G A57G | 0.776
T30A A57T | 0.8
T30A A57G | 0.837
T30A A57C | 0.778
T30C C42A | 0.817
T30C C42G | 0.817
T30C C42T | 0.794
T30A A41G | 0.798
T30A A41T | 0.859
T30A A41C | 0.797
T30A A37T | 0.832
T30A A37C | 0.831
T30A A37G | 0.87
T30G A41G | 0.84
T30G A41C | 0.834
T30G A41T | 0.82
T30G G34A | 0.825

Variant | fraction ligated
T30G G34C | 0.795
T30G G34T | 0.796
T29G C33T | 0.808
T29G C33A | 0.85
T29G C33G | 0.865
T30C G34C | 0.746
T30C G34A | 0.792
T30C G34T | 0.787
T30A T44A | 0.855
T30A T44C | 0.828
T30A T44G | 0.825
T30A G46T | 0.805
T30A G46C | 0.795
T30A G46A | 0.809
T30A G55A | 0.816
T30A G55C | 0.741
T30A G55T | 0.818
T29G G50C | 0.243
T29G G50A | 0.345
T29G G50T | 0.683
T29G T35G | 0.813
T29G T35A | 0.83
T29G T35C | 0.803
T30G A48T | 0.796

Variant | fraction ligated
T30G A48G | 0.791
T30G A48C | 0.761
T30A T49A | 0.694
T30A T49G | 0.754
T30A T49C | 0.467
T30C T32G A39C A41G | 0.852
T30A T43G | 0.8
T30A T43A | 0.828
T30A T43C | 0.794
T30G G31C T32G C33G G38C A39C C40G A41C | 0.828
T29G A37T | 0.828
T29G A37C | 0.814
T29G A37G | 0.832
T30G G38T | 0.816
T30G G38C | 0.805
T30G G38A | 0.843
T30G C33A | 0.86
T30G C33T | 0.867
T30G C33G | 0.854
G31A A57C | 0.819
G31A A57T | 0.796
G31A A57G | 0.851
T30C G46T | 0.78
T30C G46C | 0.759

Variant | fraction ligated
T30C G46A | 0.807
G31A A39T | 0.795
G31A A39G | 0.795
G31A A39C | 0.78
T30G G31C T32C A39G C40G A41C | 0.846
T29G T44G | 0.791
T29G T44C | 0.795
T29G T44A | 0.848
T30C T35C | 0.824
T30C T35A | 0.796
T30C T35G | 0.795
T30C C40G | 0.828
T30C C40T | 0.808
T30C C40A | 0.828
T30C A36G | 0.823
T30C A36C | 0.801
T30C A36T | 0.816
T29C T49A | 0.62
T29C T49G | 0.66
T29C T49C | 0.104
T29G G31A | 0.836
T29G G31C | 0.804
T29G G31T | 0.835
